Data taken from patent US10583180B2, “Method for treating adenosine deaminase severe combined imunodeficiency” (UCL Business PLC, priority 2015, dated 2020).
“Also recorded” adds a separate entry of the source.

B1: PEG-ADA: bovine form of ADA conjugated to polyethylene glycol; enzyme replacement therapy (conjugate, UniProt P56658 2-363, looked up)
Adenosine deaminase: AQTPAFNKPKVELHVHLDGAIKPETILYYGRKRGIALPADTPEELQNIIGMDKPLSLPEFLAKFDYYMPAIAGCREAVKRIAYEFVEMKAKDGVVYVEVRYSPHLLANSKVEPIPWNQAEGDLTPDEVVSLVNQGLQEGERDFGVKVRSILCCMRHQPSWSSEVVELCKKYREQTVVAIDLAGDETIEGSSLFPGHVKAYAEAVKSGVHRTVHAGEVGSANVVKEAVDTLKTERLGHGYHTLEDATLYNRLRQENMHFEVCPWSSYLTGAWKPDTEHPVVRFKNDQVNYSLNTDDPLIFKSTLDTDYQMTKNEMGFTEEEFKRLNINAAKSSFLPEDEKKELLDLLYKAYGMPSPASAEQCL
modifications: PEG conjugate (pegademase bovine)
notes: bovine form of ADA conjugated to polyethylene glycol; enzyme replacement therapy

Key:
ADA-deficient SCID = assay: Phase I/II clinical trial of autologous CD34+ cells transduced with EFS-ADA lentiviral vector; format: in vivo, human; conditions: weight adjusted dose prior to reinfusion
Description: For the non-controlled, non-randomised Phase I/II clinical trial, to assess the safety and efficacy of autologous transplantation of CD34+ cells from ADA-deficient SCID infants following human ADA cDNA transfer by the EFS-ADA lentiviral vector, subjects received the infusion of their autologous, transduced cells following marrow cytoreduction with busulfan.
Patients were selected on the basis of inclusion and exclusion criteria detailed below. A back-up harvest was retained in case of failure of reconstitution following conditioning and re-infusion of transduced cells. For the transduction protocol, CD34+ cells were purified from G-CSF mobilised PBSCs recovered by leukapheresis (Plerixafor could be added to enhance mobilization), whenever possible or from bone marrow harvested under general anaesthetic. Back up cells of 3×10^6 CD34+/kg were stored from a single procedure if sufficient cell counts were available (and if not previously stored). The remaining CD34+ cells were taken forward for transduction. […] After purification, CD34+ cells were immediately transduced with the lentiviral vector, then evaluated for sterility, cell count, and viability, and immediately infused into patients. Several other tests for safety including testing for RCLs were performed on reinfused cells and results recorded retrospectively. […]

ADA-SCID patients = conditions: cited from earlier work
ADA−/− mice = assay: Reconstitution of lethally irradiated ADA−/− mice with transduced lin-ve cells, analysed after 12 weeks; conditions: mouse, in vivo
Description: Early models of ADA deficient mice were limited by embryonic or peri-natal lethality as a result of severe hepatocellular and pulmonary damage. A two stage transgenic strategy in which ADA expression is restricted to trophoblasts rescues ADA null mice from pre- and peri-natal lethality and allows post-natal study of mice lacking ADA expression. In this model, many features of the human disease are accurately represented. Mice show abnormalities of thymic architecture with a significant block in thymocyte development at the CD4-CD8- double negative stage. […] In the periphery, there is a profound lymphopaenia with a severe T, B and NK cell deficiency that is seen in humans together with abnormalities in splenic lymphoid architecture and a paucity of splenic T cell populations. Murine ADA deficiency also manifests a number of non-immunological abnormalities including lung, renal, costochondral and neurological changes. Pulmonary problems are present in mice from ˜postnatal day 12 and are associated with significant lung inflammatory changes, eventually leading to the death of mice by postnatal day 22 from pulmonary insufficiency, unless early treatment is initiated. […] Mice were analysed after 12 weeks and compared with ADA−/− mice, mice that had undergone wild type transplant experiments (WT) or mice that had been treated with enzyme replacement therapy alone. […]

Row | Molecule | toxicities of conditioning (ADA-deficient SCID) | overall probability of surviving 20 years on ERT (ADA-SCID patients; estimated) [%] | enzyme activity on a ml to ml basis relative to packed erythrocytes (ADA-SCID patients; in vivo) [times] | patients developing antibodies against bovine epitopes (ADA-SCID patients; in vivo) [%] | probability of surviving the next 12 years (ADA-SCID patients; patient alive 6 months after starting ERT) | T cells in the mononuclear fraction of peripheral blood (ADA−/− mice)
1 | CS(=O)(=O)OCCCCOS(C)(=O)=O [Busulfan] | No toxicities; also recorded: without any significant toxicity | – | – | – | – | –
2 | B1 | – | 78 | ~1800 | ~50 | about 90% | marked increase in T cell recovery
